From article doi:10.1101/2023.01.30.525655 (bioRxiv, 2023)

B1: MDL2-6xHis (Arabidopsis thaliana MIF/D-DT-like protein 2, hexahistidine-tagged) (natural protein)
chain: PCLNLSTNVNLDGVDTSSILSEASSTVAKIIGKPENYVMIVLKGSVPMSFGGTEDPAAYGELVSIGGLNADVNKKLSAAVSAILETKLSVPKSRFFLKFYDTKGSFFGWNGATL
B2: MDL3-6xHis (Arabidopsis thaliana MIF/D-DT-like protein 3, hexahistidine-tagged) (natural protein, UniProt F4J4H3 1-112, looked up)
chain: MPCLYITTNVNFDGVNTDPFYSEVTKAVASIVGRPQNLVMVVLKGSVEIVFGGNKEAAAYAEIVSMGGITKQVKRELIATVGSILHTHFSIHPTRFIFKVFDINSLPLPSKL

What was measured:
[1] = biological target: MIF-6xHis (human macrophage migration inhibitory factor, hexahistidine-tagged) (human, UniProt P14174 2-115); experiment: cell-based or functional assay
[2] = biological target: RED-NHS-MIF-6xHis (human MIF-6xHis labelled with the RED-NHS dye) (human, UniProt P14174 2-115, RED-NHS dye (chemically labeled)); experiment: MST
[3] = biological target: the molecule itself; experiment: SEC
[4] = biological target: the molecule itself; experiment: crystal structure

Chain of RED-NHS-MIF-6xHis (human MIF-6xHis labelled with the RED-NHS dye) (P14174 2-115): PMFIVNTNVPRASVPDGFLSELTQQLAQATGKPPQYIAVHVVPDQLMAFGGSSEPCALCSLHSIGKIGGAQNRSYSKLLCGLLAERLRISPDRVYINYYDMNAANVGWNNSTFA
Chain of MIF-6xHis (human macrophage migration inhibitory factor, hexahistidine-tagged) (P14174 2-115): as above

Binder	synergy in the CXCR4 yeast lacZ reporter, 10 µM MIF with 10 µM MDL2 [1]	Kd [2] [µM]	stoichiometry N [3]	stoichiometry N [4]
B1	~3 fold over the MIF-MDL1 combination	< 5	3	
B2		< 5		3
